Measurements: the Human Domainome abundance scans (Beltran et al. 2025)
± gives the uncertainty stated by the source.

B1: Apoptosis-associated speck-like protein containing a CARD, residues 114 to 194; numbered along this chain, Q9ULZ3 (parent)
chain: FIDQHRAALIARVTNVEWLLDALYGKVLTDEQYQAVRAEPTNPSKMRKLFSFTPAWNWTCKDLLLQALRESQSYLVEDLER

Variants of: B1
Assay: abundance fitness (aPCA) (normalised: wild type 0, dead -1); higher = more abundant; growth selection in yeast, the domain comes from the species named
Details: Homo sapiens

Variant	abundance fitness
FIDQHRAALIARVTNVEWLLDALYGKVLTDEQYQAVRAEPTNPSKMRKLFSFTPAWNWTCKDLLLQALRESQGYLVEDLER [S73G]	0.067 ± 0.043
FIDQHRAANIARVTNVEWLLDALYGKVLTDEQYQAVRAEPTNPSKMRKLFSFTPAWNWTCKDLLLQALRESQSYLVEDLER [L9N]	-0.776 ± 0.35
FIDQHRAALIARVTNVEWLLDALYGKVLTDEQYQAVRAEPTNPSKMRKLFSFTPAWNWTCKDLLLQALRESQSYVVEDLER [L75V]	-0.408 ± 0.077
FIDQHRAALIARVTNVEWLLDALYGKVLTDEQYQAVRAEPTNPSKMRKLFSFTPAWNWTCKDLLLQALRESQSYQVEDLER [L75Q]	-0.651 ± 0.13
FIDQHRAALIARVTNVEWLLDALYGKVLTDEQYQAVRAEPTNPSKMRKLFSFTPAWNWTCKDLLLQALRESQSYTVEDLER [L75T]	-0.924 ± 0.35
FIDQHRAALIARVTNVEWLLDALYGKVLTDEQYQAVRAEPTNPSKMRKLFSFTPAWNWTCKDLLLQALRESQSYSVEDLER [L75S]	-0.669 ± 0.089
FIDQHRAALIARVTNVEWLLDALYGKVLTDEQYQAVRAEPTNPSKMRKLFSFTPAWNWTCKDLLLQALRESQSYLVEDLHR [E80H]	0.018 ± 0.34
FIDQHRAALIARVTNVEWLLDALYGKVLTDEQYQAVYAEPTNPSKMRKLFSFTPAWNWTCKDLLLQALRESQSYLVEDLER [R37Y]	-0.118 ± 0.12
FIAQHRAALIARVTNVEWLLDALYGKVLTDEQYQAVRAEPTNPSKMRKLFSFTPAWNWTCKDLLLQALRESQSYLVEDLER [D3A]	-0.777 ± 0.12
FIDQHRAALIARVTNVEWLLDALYGKVLTDEQYQAVRAEPTNPSKMRKLFSFTPMWNWTCKDLLLQALRESQSYLVEDLER [A55M]	-0.162 ± 0.12
FIDQHRAALIARVTNVEWLLDALYGKVLTDEQYQAVRAEPTNPSKMRKLFSFTPAWNWTCVDLLLQALRESQSYLVEDLER [K61V]	-0.649 ± 0.072
FIDQHRAALIARVTNVEWLLDALYGKVLTDEQYQAVRAEPTNPSKMRKLFSFTPAWNWTCKDLLLQALRESQSYLVEDIER [L79I]	-0.455 ± 0.24
FIDQHRAALIARVTNVEWLLDALYGKVLTDEQYQAVRAEPTNPSKMRKLFSFTPAWNWTCKDLLLQALRESQSYLVEDFER [L79F]	-0.678 ± 0.16
FIDQHRAALIARVTNVEWLLDALYGKVLTDEQYQAVRAPPTNPSKMRKLFSFTPAWNWTCKDLLLQALRESQSYLVEDLER [E39P]	-0.914 ± 0.2
FIDQHRAALIARVTNVEWLLQALYGKVLTDEQYQAVRAEPTNPSKMRKLFSFTPAWNWTCKDLLLQALRESQSYLVEDLER [D21Q]	-0.115 ± 0.082
FIDQHRAALIARVTNVEWLLDALYGKVLTDEQYQAVRAEPTNPSKMRKLFSFTPAWNWTCKDLLLQALREVQSYLVEDLER [S71V]	-0.429 ± 0.068
FIDQHRAALIARVTNVEWLLDALYGKVLTDEQYQAVRAEPTNPSKMRKLFSFTPAWNWTCKDLLLQALREEQSYLVEDLER [S71E]	-0.958 ± 0.22

Variant	abundance fitness
FIDQHRAALIARVTNVEWLLDALYGKVLTDEQYQAVRAEPTNPSKMRKLFSFTPAWNWTCKDLLLQALREGQSYLVEDLER [S71G]	-0.479 ± 0.063
FIDQHRAALIARVTNVEWLLDALYGKVLTDEQYQAVRAEPTNPSKMRKLFSVTPAWNWTCKDLLLQALRESQSYLVEDLER [F52V]	-0.649 ± 0.056
FIDQHRAALIARVTNVEWLLDALYGKVLTDEQYQAVRAEPTNPSKMRKLFSFTPAWNWTCKDLLLHALRESQSYLVEDLER [Q66H]	-0.695 ± 0.37
FIDQHRAALIARVTNVEWLLDALYGKVLTDEQYQAVRAEPENPSKMRKLFSFTPAWNWTCKDLLLQALRESQSYLVEDLER [T41E]	-0.782 ± 0.17
FIDQHRAALIARVTNVEWLLDALYGKVLTDEQYQAVRAEPRNPSKMRKLFSFTPAWNWTCKDLLLQALRESQSYLVEDLER [T41R]	-0.907 ± 0.1
FIDQHRAALIARLTNVEWLLDALYGKVLTDEQYQAVRAEPTNPSKMRKLFSFTPAWNWTCKDLLLQALRESQSYLVEDLER [V13L]	-0.632 ± 0.076
FIDQHRAALIARVTNVEWLLDALYGKVLTDEQYQAVRAEPTNPSKMRKLFSFTPAWNWTCKDLLLQALKESQSYLVEDLER [R69K]	0.031 ± 0.088
FIDQHRAALIARVTNVEWLLDALYGKVLTDEQYQAVRAEPTNPSKMRKLFSFTPAWNWTCKDLLLQALMESQSYLVEDLER [R69M]	-0.505 ± 0.13
FIDQHRAALIARVTNVEWLLDALYGKVLTDEQYQAVRAEPTNPSKMRKLFSFTPAWNWTCKDLLLQALRESQSYLVEWLER [D78W]	-0.141 ± 0.06
FIDQHRAALIARVTNVEWLLDALYGKVLTDEQYQAVRAEPTNPSKMRKLFSFTPAWNWTKKDLLLQALRESQSYLVEDLER [C60K]	0.041 ± 0.11
FIDQHRAALIARVTNVEWLLDALYGKVLTDEQYQAVRAEPTNPSKMRKLFSFTPAWNWTIKDLLLQALRESQSYLVEDLER [C60I]	-0.473 ± 0.15
FIDQHRAGLIARVTNVEWLLDALYGKVLTDEQYQAVRAEPTNPSKMRKLFSFTPAWNWTCKDLLLQALRESQSYLVEDLER [A8G]	-0.577 ± 0.059
FIDQHRAALIARVTNVEWLLDALYGKVLTDEQYQAVRAEPTAPSKMRKLFSFTPAWNWTCKDLLLQALRESQSYLVEDLER [N42A]	-0.188 ± 0.076
FIDQHRAALIARVTNVEWLLDALYGKVLTDEQYQAVRAEPTIPSKMRKLFSFTPAWNWTCKDLLLQALRESQSYLVEDLER [N42I]	0.082 ± 0.31
FIDQHRAALIARVTNVEWLLDALYGKVLTDEQYQAVRAEPTNPSKMRKLFSFTPAQNWTCKDLLLQALRESQSYLVEDLER [W56Q]	-0.598 ± 0.15
FIDQHRAALSARVTNVEWLLDALYGKVLTDEQYQAVRAEPTNPSKMRKLFSFTPAWNWTCKDLLLQALRESQSYLVEDLER [I10S]	-0.977 ± 0.15
FIDQHRAALIARVTNVEWLLDALYGKVLIDEQYQAVRAEPTNPSKMRKLFSFTPAWNWTCKDLLLQALRESQSYLVEDLER [T29I]	-0.825 ± 0.28
